Results taken from the supplement of paper PMC10567573.

B1: TRAF3IP2 (parent)
chain: KEHVPTWLQNTHVYSWPKNKKNIL
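Also: lentivirally expressed fusions sorted by FACS into six bins by GFP to DsRed ratio, PSI derived from sequencing read proportions per bin multiplied by bin number.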

Variants of: B1
Assay: protein stability index of a GFP-peptide fusion (GPS, HEK-293T) (PSI 1-6); higher = more stable
Conditions: c terminus: a fixed tail appended
Work on KETVPTWLQNTHVYSWPKNKKNIL yielded a protein stability index of 2.72.
KEFVPTWLQNTHVYSWPKNKKNIL gave a protein stability index of 2.16.
KEPVPTWLQNTHVYSWPKNKKNIL gave a protein stability index of 3.67.
For KEIVPTWLQNTHVYSWPKNKKNIL, the protein stability index was 2.53.
With KEQVPTWLQNTHVYSWPKNKKNIL the protein stability index was 2.62.
Work on KEHVPTWLQNTHVYSWPKNKKNID yielded a protein stability index of 3.24.
For KEHVPTWLQNTHVYSWPKNKKNIR, the protein stability index was 3.49.
Work on KEHVPTWLQNTHVYSWPKNKKNIA yielded a protein stability index of 3.28.
For KEHVPTWLQNTHVYSWPKNKKNII, the protein stability index was 2.67.
With KEHVPTWLQNTHVYSWPKNKKNIH the protein stability index was 3.17.
With KEHVPTWLQNTHVYSWPKHKKNIL the protein stability index was 2.19.
In the case of KEHVPTWLQNTHVYSWPKYKKNIL, the protein stability index is reported as 2.03.
For KEHVPTWLQNTHVYSWPKLKKNIL, the protein stability index was 1.55.
In the case of KEHAPTWLQNTHVYSWPKNKKNIL, the protein stability index is reported as 2.39.
In the case of KEHLPTWLQNTHVYSWPKNKKNIL, the protein stability index is reported as 3.21.
KEHEPTWLQNTHVYSWPKNKKNIL gave a protein stability index of 3.23.
In the case of KEHVPTWLQNTHVYSWPQNKKNIL, the protein stability index is reported as 3.64.
In the case of KEHVPTWLQNTHVYSWPFNKKNIL, the protein stability index is reported as 2.12.
Variant KEHVPTWLQNTHVYSWPPNKKNIL has a protein stability index of 3.12.
In the case of KEHVPTWLQNTHVYSWPINKKNIL, the protein stability index is reported as 2.05.
With KEHVPTWLQNTHVYSWPYNKKNIL the protein stability index was 3.3.
In the case of LEHVPTWLQNTHVYSWPKNKKNIL, the protein stability index is reported as 2.56.
For HEHVPTWLQNTHVYSWPKNKKNIL, the protein stability index was 2.58.
EEHVPTWLQNTHVYSWPKNKKNIL gave a protein stability index of 3.06.
Work on MEHVPTWLQNTHVYSWPKNKKNIL yielded a protein stability index of 2.33.
For KEHVPTWLQNTHVYSWTKNKKNIL, the protein stability index was 2.29.
KEHVPTWLQNTHVYSWEKNKKNIL showed a protein stability index of 2.23.
KEHVPTWLQNTHVYSWLKNKKNIL showed a protein stability index of 1.85.
With KEHVPTWLQNTHVYSWVKNKKNIL the protein stability index was 1.98.
KEHVPTWLQNTHVYSWWKNKKNIL showed a protein stability index of 2.1.
KEHVPTWLQNTHVYSWYKNKKNIL gave a protein stability index of 2.03.
Variant KEHVPTWLQNTHNYSWPKNKKNIL has a protein stability index of 2.11.
Variant KEHVPTWLQNTHYYSWPKNKKNIL has a protein stability index of 2.62.
KEHVPTWLQNTHSYSWPKNKKNIL gave a protein stability index of 2.75.
Work on KEHVPTWLQNTHMYSWPKNKKNIL yielded a protein stability index of 2.88.
With KEHVPTWLQNTHWYSWPKNKKNIL the protein stability index was 2.46.
With KWHVPTWLQNTHVYSWPKNKKNIL the protein stability index was 1.57.
For KQHVPTWLQNTHVYSWPKNKKNIL, the protein stability index was 2.15.
In the case of KKHVPTWLQNTHVYSWPKNKKNIL, the protein stability index is reported as 2.13.
In the case of KEHVPTWLQNLHVYSWPKNKKNIL, the protein stability index is reported as 2.44.
KEHVPTWLQNQHVYSWPKNKKNIL gave a protein stability index of 3.04.
KEHVPTWLQNAHVYSWPKNKKNIL gave a protein stability index of 2.67.
Variant KEHVPTWLQNTHVYSWPKNKKNVL has a protein stability index of 3.07.
For KEHVPTWLQNTHVYSWPKNKKNLL, the protein stability index was 2.68.
In the case of KEHVPTWLQNTHVYSWPKNKKNTL, the protein stability index is reported as 2.54.
In the case of KEHVPTWLQNTHVYSWPKNKKNEL, the protein stability index is reported as 3.54.
For KEHVPTWLQNTHVYSWPKNKKNHL, the protein stability index was 3.19.
For KEHVPTWLQNTHVYCWPKNKKNIL, the protein stability index was 2.15.
KEHVPTWLQNTHVYVWPKNKKNIL gave a protein stability index of 2.43.
For KEHVPTWLQNTHVYKWPKNKKNIL, the protein stability index was 2.77.
With KEHVPTWHQNTHVYSWPKNKKNIL the protein stability index was 2.76.
In the case of KEHVPTWAQNTHVYSWPKNKKNIL, the protein stability index is reported as 3.33.
Work on KEHVPTWPQNTHVYSWPKNKKNIL yielded a protein stability index of 3.18.
KEHVPTWNQNTHVYSWPKNKKNIL gave a protein stability index of 3.2.
KEHVPTWIQNTHVYSWPKNKKNIL gave a protein stability index of 2.54.
In the case of KEHVPTWVQNTHVYSWPKNKKNIL, the protein stability index is reported as 2.04.
Variant KEHVPTWQQNTHVYSWPKNKKNIL has a protein stability index of 3.08.
In the case of KEHVPEWLQNTHVYSWPKNKKNIL, the protein stability index is reported as 2.59.
KEHVPAWLQNTHVYSWPKNKKNIL gave a protein stability index of 2.49.
KEHVPIWLQNTHVYSWPKNKKNIL showed a protein stability index of 2.21.
Work on KEHVPLWLQNTHVYSWPKNKKNIL yielded a protein stability index of 2.58.
In the case of KEHVPKWLQNTHVYSWPKNKKNIL, the protein stability index is reported as 2.73.
Work on KEHVPTWLQNTHVYSWPKNKLNIL yielded a protein stability index of 2.18.
Variant KEHVPTWLQNTHVYSWPKNKWNIL has a protein stability index of 1.97.
Work on KEHVPTWLQNTHVYSWPKNKHNIL yielded a protein stability index of 2.17.
KEHVPTWLQNTHVASWPKNKKNIL gave a protein stability index of 3.14.
KEHVPTWLQNTHVRSWPKNKKNIL showed a protein stability index of 2.73.
Variant KEHVPTWLQNTHVPSWPKNKKNIL has a protein stability index of 2.98.
Work on KEHVPTWLQNTHVYSWPKNLKNIL yielded a protein stability index of 1.74.
KEHVPTWLQNTHVYSWPKNPKNIL gave a protein stability index of 2.72.
For KEHVPTWLQNTHVYSWPKNFKNIL, the protein stability index was 1.59.
Work on KEHVPTWLQNTDVYSWPKNKKNIL yielded a protein stability index of 2.75.
For KEHVPTWLQNTCVYSWPKNKKNIL, the protein stability index was 2.46.
In the case of KEHVPTWLQNTVVYSWPKNKKNIL, the protein stability index is reported as 2.05.
Variant KEHVPTWLQNTFVYSWPKNKKNIL has a protein stability index of 2.13.
KEHVPTWLQNTWVYSWPKNKKNIL gave a protein stability index of 1.82.
In the case of KEHVPTWLQNTHVYSWPKNKKCIL, the protein stability index is reported as 1.71.
With KEHVPTWLQNTHVYSWPKNKKYIL the protein stability index was 1.56.
Work on KEHVPTWLQNTHVYSWPKNKKLIL yielded a protein stability index of 1.7.
Work on KEHVPTWLQNTHVYSSPKNKKNIL yielded a protein stability index of 3.08.
For KEHVPTWLQNTHVYSQPKNKKNIL, the protein stability index was 3.36.
With KEHVKTWLQNTHVYSWPKNKKNIL the protein stability index was 1.9.
KEHVPTWLQVTHVYSWPKNKKNIL gave a protein stability index of 2.85.
Variant KEHVPTWLQETHVYSWPKNKKNIL has a protein stability index of 2.66.
Variant KEHVPTWLQFTHVYSWPKNKKNIL has a protein stability index of 2.09.
Work on KEHVPTWLCNTHVYSWPKNKKNIL yielded a protein stability index of 2.25.
Variant KEHVPTWLRNTHVYSWPKNKKNIL has a protein stability index of 1.97.
Variant KEHVPTWLLNTHVYSWPKNKKNIL has a protein stability index of 2.29.
With KEHVPTWLVNTHVYSWPKNKKNIL the protein stability index was 2.65.
Variant KEHVPTWLSNTHVYSWPKNKKNIL has a protein stability index of 2.62.
Variant KEHVPTWLDNTHVYSWPKNKKNIL has a protein stability index of 2.53.
Variant KEHVPTSLQNTHVYSWPKNKKNIL has a protein stability index of 3.31.
With KEHVPTRLQNTHVYSWPKNKKNIL the protein stability index was 2.85.
KEHVPTYLQNTHVYSWPKNKKNIL gave a protein stability index of 2.88.
